Experimental data as given in US20070060521A1.

B1: HAIYPRN (SEQ ID NO:17) (peptide, not shown: small tags and cut ends; large carriers)
peptide: HAIYPRN
B2: ASTLPKA (SEQ ID NO:18) (peptide, not shown: small tags and cut ends; large carriers)
peptide: ASTLPKA
B3: IQSPHFF (SEQ ID NO:19) (peptide, not shown: small tags and cut ends; large carriers)
peptide: IQSPHFF
B4: … (SEQ ID NO:14) (peptide, not shown: large carriers)
peptide: SHPWNAQRELSVGGGS
B5: … (SEQ ID NO:16) (peptide, not shown: large carriers)
peptide: FSYPLTRAPLNMGGGS
B6: … (SEQ ID NO:13) (peptide, not shown: large carriers)
peptide: QDVHLTQQSRYTGGGS
B7: … (SEQ ID NO:15) (peptide, not shown: large carriers)
peptide: YPAPQPLVTKTSGGGS

molecular target: GST fusion protein containing the isolated SH2 domain of STAT3; test: phage display panning on the isolated SH2 domain of STAT3, clones sequenced after selection
Sequence (P40763 580-670): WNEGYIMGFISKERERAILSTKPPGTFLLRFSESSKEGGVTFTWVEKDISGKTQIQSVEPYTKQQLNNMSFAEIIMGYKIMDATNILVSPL

| Binder | Frequency (out of 100 clones) [%] |
| --- | --- |
| B1 | 16 |
| B2 | 7 |
| B3 | 6 |

molecular target: GST-Stat3 fusion protein (full-length STAT3 fused to bacterial glutathione S-transferase); test: phage display panning on GST-Stat3, clones sequenced after selection
Sequence (P40763 whole entry, the tested form may be a part): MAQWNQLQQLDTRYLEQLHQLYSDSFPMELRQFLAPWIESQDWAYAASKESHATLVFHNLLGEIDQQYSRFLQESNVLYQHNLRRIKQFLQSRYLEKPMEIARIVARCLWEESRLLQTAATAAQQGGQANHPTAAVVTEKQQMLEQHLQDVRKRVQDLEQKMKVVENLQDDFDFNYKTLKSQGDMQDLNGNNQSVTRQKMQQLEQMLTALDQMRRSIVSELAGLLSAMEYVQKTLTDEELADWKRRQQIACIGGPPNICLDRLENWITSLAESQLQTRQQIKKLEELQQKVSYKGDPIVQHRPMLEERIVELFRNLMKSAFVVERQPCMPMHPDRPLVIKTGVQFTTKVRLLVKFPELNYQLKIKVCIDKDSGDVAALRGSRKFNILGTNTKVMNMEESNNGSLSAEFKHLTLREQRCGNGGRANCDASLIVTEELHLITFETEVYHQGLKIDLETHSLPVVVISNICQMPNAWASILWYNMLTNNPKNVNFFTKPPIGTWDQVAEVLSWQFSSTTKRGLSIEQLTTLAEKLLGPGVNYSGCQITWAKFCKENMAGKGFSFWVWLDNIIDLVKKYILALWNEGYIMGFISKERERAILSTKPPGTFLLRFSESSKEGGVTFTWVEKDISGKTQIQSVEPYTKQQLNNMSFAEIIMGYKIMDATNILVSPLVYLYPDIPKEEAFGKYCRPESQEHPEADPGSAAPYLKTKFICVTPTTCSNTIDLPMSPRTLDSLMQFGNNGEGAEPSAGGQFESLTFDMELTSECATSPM

| Binder | Frequency (out of 100 clones) [%] |
| --- | --- |
| B4 | 9 |
| B5 | 8 |
| B6 | 13 |
| B7 | 8 |
